Results as given in PMC6761829 (Nature structural & molecular biology, 2019).
Where no end group is shown, it is not given here.

B1: Full-length Drosophila melanogaster spastin with a Walker B mutation (E583Q) (enzyme, UniProt Q8I0P1 1-758, looked up)
chain: MVRTKNQSSSSSASSSSTKSPIKSSSGAGSSGGGLGGRQSTHRSSSASNVAAVVAGGSSAAGGGSSSNRRSPGSSPDGDDDTTTTDDLTPTTCSPRSGHHHSYGGYSSSVHKQNLYVVSFPIIFLFNVLRSLIYQLFCIFRYLYGASTKVIYRPHRRDCNIEIVVQNSSKEQQQSLNHPSELNREGDGQEQQLSNQPQRFRPIQPLEMAANRPGGGYSPGPGDPLLAKQKHHHRRAFEYISKALKIDEENEGHKELAIELYRKGIKELEDGIAVDCWSGRGDVWDRAQRLHDKMQTNLSMARDRLHFLALREQDLQMQRLSLKEKQKEEAQSKPQKTREPMLAGMTNEPMKLRVRSSGYGPKATTSAQPTASGRKLTIGSKRPVNLAVANKSQTLPRNLGSKTSVGAVQRQPAKTAATPPAVRRQFSSGRNTPPQRSRTPINNNGPSGSGASTPVVSVKGVEQKLVQLILDEIVEGGAKVEWTDIAGQDVAKQALQEMVILPSVRPELFTGLRAPAKGLLLFGPPGNGKTLLARAVATECSATFLNISAASLTSKYVGDGEKLVRALFAVARHMQPSIIFIDQVDSLLSERSSSEHEASRRLKTEFLVEFDGLPGNPDGDRIVVLAATNRPQELDEAALRRFTKRVYVSLPDEQTRELLLNRLLQKQGSPLDTEALRRLAKITDGYSGSDLTALAKDAALEPIRELNVEQVKCLDISAMRAITEQDFHSSLKRIRRSVAPQSLNSYEKWSQDYGDITI

Assays:
[1] = target: the molecule itself; assay: AUC
[2] = target: B1; assay: AUC

Binder | stoichiometry N [1] | binding result [2]
B1 | 6 | –
Atto488-VGSEEEEEEEEEE [VGSEEEEEEEEEE peptide labeled with Atto488] | – | binds
